Assay results reported in the supplement of paper PMC12338614.
± gives the uncertainty stated by the source.

B1: library; numbered along this chain (parent)
chain: MEVVDPQQLGMFTEGELMSVGMDTFIHRIDSTEVIYQPRRKRAKLIGKYLMGDLLGEGSYGKVKEVLDSETLCRRAVKILKKKKLRRIPNGEANVKKEIQLLRRLRHKNVIQLVDVLYNEEKQKMYMVMEYCVCGMQEMLDSVPEKRFPVCQAHGYFCQLIDGLEYLHSQGIVHKDIKPGNLLLTTGGTLKISDLGVAEALHPFAADDTCRTSQGSPAFQPPEIANGLDTFSGFKVDIWSAGVTLYNITTGLYPFEGDNIYKLFENIGKGSYAIPGDCGPPLSDLLKGMLEYEPAKRFSIRQIRQHSWFRKKHPPAEAPVPIPPSPDTKDRWRSMTVVPYLEDLHGADEDEDLFDIEDDIIYTQDFTVPGQVPEEEASHNGQRRGLPKAVCMNGTEAAQLSTKSRAEGRAPNPARKACSASSKIRRLSACKQQ

Variants of: B1
Experiment: STK11 functional score (HeLa growth suppression), rescaled enrichment; synonymous median = 1, nonsense median = 0 (normalised score)
Conditions: with HeLa; variant type: missense
Summary of the method: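 The functional score takes the post/pre-selection log ratio, corrects it to wild type, rescales it to synonymous and nonsense medians, and merges it over codons and replicate transfections, with error from bootstrapping. Counts came from tiled gDNA amplicons sequenced on NextSeq (~2 million reads per tile). The libraries were POPCode codon-randomised, codon-optimised STK11 integrated by Bxb1 at an AAVS1 landing pad in HeLa, three regions with three transfections each.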

| Variant | STK11 functional score |
| --- | --- |
| L117G | 0.823 ± 0.22 |
| P222L | 0.281 ± 0.091 |
| N226M | 0.459 ± 0.1 |
| S421G | 1.38 ± 0.21 |
| F204Y | 0.593 ± 0.2 |
| Q170M | 1.54 ± 0.25 |
| K262L | 1.13 ± 0.13 |
| M392A | 1.56 ± 0.25 |
| N380V | 1.12 ± 0.27 |
| Y246W | 1.15 ± 0.092 |
| P254R | 0.199 ± 0.14 |
| T336V | 1.49 ± 0.14 |
| T336I | 1.35 ± 0.33 |
| G381H | 1.6 ± 0.29 |
| A429P | 0.559 ± 0.56 |
| G233Y | 1.04 ± 0.94 |
| V110H | 0.958 ± 0.11 |
| R39V | 1.22 ± 0.14 |
| D277W | 0.81 ± 0.57 |
| L50A | 1.52 ± 0.24 |
| L282V | 0.86 ± 0.23 |
| H168G | 0.533 ± 0.13 |
| S299G | 1.18 ± 0.52 |
| E65Y | 1.05 ± 0.095 |

| Variant | STK11 functional score |
| --- | --- |
| T24L | 1.18 ± 0.13 |
| E407P | 1.6 ± 0.15 |
| E357S | 1.52 ± 0.15 |
| Q137M | 1.54 ± 0.059 |
| Q137W | 1.25 ± 0.087 |
| Y118C | 0.723 ± 0.082 |
| R426F | 1.3 ± 0.43 |
| R426A | 0.525 ± 0.27 |
| D358G | 1.08 ± 0.14 |
| H379K | 1.37 ± 0.22 |
| E293I | 1.16 ± 0.096 |
| G370R | 1.16 ± 0.47 |
| V128L | 0.945 ± 0.1 |
| E375P | 1.53 ± 0.29 |
| F366W | 1.58 ± 0.14 |
| K44M | 0.633 ± 0.17 |
| G91A | 0.99 ± 0.19 |
| L201T | 1.2 ± 0.26 |
| S378N | 1.56 ± 0.47 |
| I35L | 1.11 ± 0.1 |
| I35W | 1.61 ± 0.3 |
| Q371Y | 1.04 ± 0.54 |
| T363I | 0.824 ± 0.19 |
| G408E | 1.54 ± 0.12 |

| Variant | STK11 functional score |
| --- | --- |
| G135V | 1.29 ± 0.3 |
| Y49I | 1.24 ± 0.13 |
| H345R | 1.58 ± 0.15 |
| K84L | 1.64 ± 0.17 |
| I424A | 1.58 ± 0.27 |
| I79R | 0.967 ± 0.28 |
| I172L | 0.71 ± 0.11 |
| K269F | 0.789 ± 0.12 |
| A93S | 0.907 ± 0.2 |
| A273F | 0.993 ± 0.43 |
| H306L | 0.85 ± 0.59 |
| Y126H | 0.681 ± 0.86 |
| E121I | 1.42 ± 0.52 |
| Q399R | 0.852 ± 0.19 |
| T249G | 0.293 ± 0.1 |
| N181G | 0.0242 ± 0.078 |
| L252V | 1.3 ± 0.094 |
| M125H | 0.857 ± 0.64 |
| M125S | 0.769 ± 0.16 |
| L427W | 1.53 ± 0.17 |
| Y340N | 1.03 ± 0.63 |
| R75N | -0.061 ± 0.19 |
| R333I | 1.49 ± 0.23 |
